From patent publication US20140017734

T1: Monoscaffoldin (truncated CipA), Cohesin 2-CBM3a, Q06851
T1 chain: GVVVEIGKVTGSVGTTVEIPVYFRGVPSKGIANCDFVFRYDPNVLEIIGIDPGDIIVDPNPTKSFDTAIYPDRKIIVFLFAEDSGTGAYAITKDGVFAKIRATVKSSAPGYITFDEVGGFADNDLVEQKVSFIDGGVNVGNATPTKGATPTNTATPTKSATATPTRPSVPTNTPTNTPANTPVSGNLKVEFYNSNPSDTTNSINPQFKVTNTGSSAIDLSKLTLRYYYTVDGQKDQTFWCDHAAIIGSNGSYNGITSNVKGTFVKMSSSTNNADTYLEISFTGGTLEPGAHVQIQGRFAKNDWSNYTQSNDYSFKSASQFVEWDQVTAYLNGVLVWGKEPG


How the values were obtained:
[1] = biological target: Monoscaffoldin (truncated CipA), Cohesin 2-CBM3a (UniProt Q06851)
[2] = biological target: T1, Monoscaffoldin (truncated CipA), …

| Molecule | yield of soluble sugar from Avicel after 119 hour digestion, with the adaptor relative to without it [1] | yield of soluble sugar from Avicel after 119 hour digestion, with the adaptor relative to without it [2] |
| --- | --- | --- |
| Chimera1 of CbhA (CBM4-Ig-GH9-linker1-CBM3b-Doc) | increased by factors of 1.55 and 1.73 |  |
| Chimera2 of CbhA (CBM4-Ig-GH9-linker2-CBM3b-Doc) (protein) LEDNSSTLPPYKNDLLYERTFDEGLCYPWHTCEDSGGKCSFDVVDVPGQPGNKAFAVTVLDKGQNRWSVQMRHRGLTLEQGHTYRVRLKIWADASCKVYIKIGQMGEPYAEYWNNKWSPYTLTAGKVLEIDETFVMDKPTDDTCEFTFHLGGELAATPPYTVYLDDVSLYDPEYTKPVEYILPQPDVRVNQVGYLPEGKKVATVVCNSTQPVKWQLKNAAGVVVLEGYTEPKGLDKDSQDYVHWLDFSDFATEGIGYYFELPTVNSPTNYSHPFDIRKDIYTQMKYDALAFFYHKRSGIPIEMPYAGGEQWTRPAGHIGIEPNKGDTNVPTWPQDDEYAGIPQKNYTKDVTGGWYDAGDHGKYVVNGGIAVWTLMNMYERAKIRGLDNWGPYRDGGMNIPEQNNGYPDILDEARWEIEFFKKMQVTEKEDPSIAGMVHHKIHDFRWTALGMLPHEDPQPRYLRPVSTAATLNFAATLAQSARLWKDYDPTFAADCLEKAEIAWQAALKHPDIYAEYTPGSGGPGGGPYNDDYVGDEFYWAACELYVTTGKDEYKNYLMNSPHYLEMPAKMGENGGANGEDNGLWGCFTWGTTQGLGTITLALVENGLPATDIQKARNNIAKAADRWLENIEEQGYRLPIKQAEDERGGYPWGSNSFILNQMIVMGYAYDFTGDSKYLDGMFDGISYLLGRNAMDQSYVTGYGERPLQNPHDRFWTPQTSKRFPAPPPGIISGGPNSRFEDPTINAAVKKDTPPQKCFIDHTDSWSTNEITVNWNAPFAWVTAYLDEQYTDSETDTPTPTATPAPTVTPTPTPAPTPTPTPTPTATPTPTPTPTPTATPTVTATPTPTPSSTPVKVQYLCENTQTSTQEIKGKFNIVNTGNRDYSLKDIVLRYYFTKEHNSQLQFICYYTPIGSGNLIPSFGGSGDEHYLQLEFKDVKLPAGGQTGEIQFVIRYADNSFHDQSNDYSFDPTIKAFQDYGKVTLYKNGELVWGTPPGGTEPEEPEEPAIVYGDCNDDGKVNSTDVAVMKRYLKKENVNINLDNADVNADGKVNSTDFSILKRYVMKNIEELPYR |  | increased by factors of 1.55 and 1.73 |
| wild-type CbhA from Clostridium thermocellum (CBM4-Ig-GH9-linker3-CBM3b-Doc) (protein) MKFRRSICTAVLLAVLLTLLVPTSVFALEDNSSTLPPYKNDLLYERTFDEGLCYPWHTCEDSGGKCSFDVVDVPGQPGNKAFAVTVLDKGQNRWSVQMRHRGLTLEQGHTYRVRLKIWADASCKVYIKIGQMGEPYAEYWNNKWSPYTLTAGKVLEIDETFVMDKPTDDTCEFTFHLGGELAATPPYTVYLDDVSLYDPEYTKPVEYILPQPDVRVNQVGYLPEGKKVATVVCNSTQPVKWQLKNAAGVVVLEGYTEPKGLDKDSQDYVHWLDFSDFATEGIGYYFELPTVNSPTNYSHPFDIRKDIYTQMKYDALAFFYHKRSGIPIEMPYAGGEQWTRPAGHIGIEPNKGDTNVPTWPQDDEYAGIPQKNYTKDVTGGWYDAGDHGKYVVNGGIAVWTLMNMYERAKIRGLDNWGPYRDGGMNIPEQNNGYPDILDEARWEIEFFKKMQVTEKEDPSIAGMVHHKIHDFRWTALGMLPHEDPQPRYLRPVSTAATLNFAATLAQSARLWKDYDPTFAADCLEKAEIAWQAALKHPDIYAEYTPGSGGPGGGPYNDDYVGDEFYWAACELYVTTGKDEYKNYLMNSPHYLEMPAKMGENGGANGEDNGLWGCFTWGTTQGLGTITLALVENGLPATDIQKARNNIAKAADRWLENIEEQGYRLPIKQAEDERGGYPWGSNSFILNQMIVMGYAYDFTGDSKYLDGMFDGISYLLGRNAMDQSYVTGYGERPLQNPHDRFWTPQTSKRFPAPPPGIISGGPNSRFEDPTINAAVKKDTPPQKCFIDHTDSWSTNEITVNWNAPFAWVTAYLDEQYTDSETDKVTIDSPVAGERFEAGKDINISATVKSKTPVSKVEFYNGDTLISSDTTAPYTAKITGAAVGAYNLKAVAVLSDGRRIESPVTPVLVKVIVKPTVKLTAPKSNVVAYGNEFLKITATASDSDGKISRVDFLVDGEVIGSDREAPYEYEWKAVEGNHEISVIAYDDDDAASTPDSVKIFVKQARDVKVQYLCENTQTSTQEIKGKFNIVNTGNRDYSLKDIVLRYYFTKEHNSQLQFICYYTPIGSGNLIPSFGGSGDEHYLQLEFKDVKLPAGGQTGEIQFVIRYADNSFHDQSNDYSFDPTIKAFQDYGKVTLYKNGELVWGTPPGGTEPEEPEEPAIVYGDCNDDGKVNSTDVAVMKRYLKKENVNINLDNADVNADGKVNSTDFSILKRYVMKNIEELPYR |  | increased by a factor of only 1.09 |
